How the values were obtained:
Assay in all cases: cell-based or functional assay
human CD38 [1] = target: T1, human CD38 (human, UniProt P28907 1-300)
human CD38 [2] = target: T1, human CD38; remark: listed apart in the source
human CD38 [3] = target: T1, human CD38; remark: listed apart in the source
human CD38 [4] = target: T1, human CD38; remark: listed apart in the source

B1: -024 (antibody, V domains shown)
VH: EVQLVQSGAEVKKPGESLKISCKGSGYSFSNYWIGWVRQMPGKGLEWMGIIYPHDSDARYSPSFQGQVTFSADKSISTAYLQWSSLKASDTAMYYCARHVGWGSRYWYFDLWGRGTLVTVSS
VL: EIVLTQSPATLSLSPGERATLSCRASQSVSSYLAWYQQKPGQAPGLLIYDASNRASGIPARFSGSGSGTDFTLTISSLEPEDFAVYYCQQRSNWPLTFGGGTKVEIK
Human CD38 [1]
  EC50 of CDC (PI-positive cells), CD38-CHO cells: 0.24 µg/mL
  EC50 of CDC (PI-positive cells), Daudi-luc cells: > 90 µg/mL
Human CD38 [2]
  EC50 of ADCC (51Cr release), Daudi-luc target cells: 0.0097 µg/mL
  EC50 of ADCC (51Cr release), fresh MM tumor cells: 0.056 µg/mL

B2: -003 (antibody, V domains shown)
VH: not shown
VL: DIQMTQSPSSLSASVGDRVTITCRASQGISSWLAWYQQKPEKAPKSLIYAASSLQSGVPSRFSGSGSGTDFTLTISSLQPEDFATYYCQQYNSYPRTFGQGTKVEIK
Human CD38 [3]
  EC50 of CDC, CHO-CD38 cells (n = 2): 4.5 µg/mL
Human CD38 [4]
  Log EC50 of ADCC, Daudi target cells (n=5): 1.17
Human CD38 [1]
  EC50 of CDC (PI-positive cells), CD38-CHO cells: 3.14 µg/mL
  EC50 of CDC (PI-positive cells), Daudi-luc cells: > 90 µg/mL
Human CD38 [2]
  EC50 of ADCC (51Cr release), Daudi-luc target cells: 0.009 µg/mL
  EC50 of ADCC (51Cr release), fresh MM tumor cells: 0.027 µg/mL
